Reference: patent US20160250341A1 (Molecular Partners, published 2016)
Numbering of substitutions follows the chain as printed.

B1: DARPin #20 (designed binder)
chain: MRGSHHHHHHGSDLDKKLLEAARAGQDDEVRILMANGADVNAKDYFSHTPLHLAARNGHLKIVEVLLKAGADVNAKDFAGKTPLHLAANDGHLEIVEVLLKHGADVNAQDIFGKTPADIAADAGHEDIAEVLQKLN
B2: DARPin #43 (designed binder)
chain: B1 chain with D15G, M34L, A35K, N36A
B3: DARPin #47 (designed binder)
chain: B1 chain with M34L, A35K, N36A, H102A
B4: DARPin #46 (designed binder)
chain: B1 chain with D15G, I32E, M34L, A35K, N36A, H102A
B5: DARPin #48 (designed binder)
chain: B1 chain with I32E, M34L, A35K, N36A, H102A
B6: DARPin #22 (designed binder)
chain: B1 chain with D15G, K61E
B7: DARPin #19 (designed binder)
chain: B1 chain with D15G
B8: DARPin #45 (designed binder)
chain: B1 chain with D15G, M34L, A35K, N36A, H102A
B9: DARPin #21 (designed binder)
chain: B1 chain with K61E
B10: DARPin #44 (designed binder)
chain: B1 chain with D15G, I32E, M34L, A35K, N36A
B11: DARPin #29 (designed binder)
chain: MRGSHHHHHHGSDLDKKLLEAARAGQDDEVRILMANGADVNAKDERGTTPLHLAAVYGHLEIVEVLLKAGADVNAKNETGYTPLHLADSSGHLEIVEVLLKHGADVNAQDKSGKTPADLAADAGHEDIAEVLQKLN
B12: DARPin #30 (designed binder)
chain: B11 chain with H102A, G103S
B13: DARPin #27 (designed binder)
chain: B11 chain with H102A
B14: DARPin #28 (designed binder)
chain: B11 chain with G103S

Target: T1, human serum albumin (human, UniProt P02768 25-609)
T1 construct: also called HSA
T1 sequence (P02768 25-609 limits assumed): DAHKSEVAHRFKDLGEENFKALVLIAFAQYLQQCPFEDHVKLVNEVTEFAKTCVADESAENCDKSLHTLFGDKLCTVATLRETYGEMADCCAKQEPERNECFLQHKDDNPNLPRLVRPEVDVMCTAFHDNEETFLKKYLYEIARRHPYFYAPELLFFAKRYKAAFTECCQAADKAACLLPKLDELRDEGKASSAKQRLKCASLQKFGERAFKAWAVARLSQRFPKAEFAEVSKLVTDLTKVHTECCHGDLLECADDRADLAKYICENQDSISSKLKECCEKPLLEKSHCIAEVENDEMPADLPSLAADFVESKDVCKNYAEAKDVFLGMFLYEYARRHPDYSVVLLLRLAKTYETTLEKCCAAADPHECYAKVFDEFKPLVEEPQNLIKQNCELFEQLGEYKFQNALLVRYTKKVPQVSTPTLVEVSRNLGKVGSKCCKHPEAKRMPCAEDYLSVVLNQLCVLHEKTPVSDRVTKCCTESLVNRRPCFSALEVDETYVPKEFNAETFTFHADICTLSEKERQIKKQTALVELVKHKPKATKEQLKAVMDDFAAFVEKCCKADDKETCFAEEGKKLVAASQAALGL
Assay: SPR (ProteOn), DARPin captured by anti-RGS-His antibody, albumin injected
Protocol: (§1) DARPins with binding specificity for xSA were immobilized in a flow cell via their His-tag to coated α-RGS-His antibody (Qiagen, cat. no. 34650), and the interaction of human, cynomolgus monkey (cyno), mouse, rat, rabbit and dog serum albumin with the immobilized DARPins were analyzed.
(§2) SPR was measured using a ProteOn instrument (BioRad) and measurement was performed according standard procedures known to the person skilled in the art. The running buffer was PBS, pH 7.4, containing 0.01% Tween 20®. Anti-RGS-His antibody was covalently immobilized on a GLC chip (BioRad) to a level of about 2000 resonance units (RU). Immobilization of DARPins on the antibody coated chip was then performed by injecting 150 μl of 1 μM DARPin solution in 300 s (flow rate=30 μl/min). The interaction with serum albumin of the different species was then measured by injecting in 60 sec a volume of 100 μl running buffer (PBS containing 0.01% Tween®) containing a distinct serum albumin at a concentration of 400, 200, 100, 50 nM (on-rate measurement), followed by a running buffer flow for 10 to 30 minutes (flow rate=100 μl/min) (off-rate measurement). The signals (i.e. resonance unit (RU) values) of an uncoated reference cell and a reference injection (i.e. injection of running buffer only) were subtracted from the RU traces obtained after injection of the serum albumins (double-referencing). From the SRP traces obtained from the on-rate and off-rate measurements the on- and off-rate of the corresponding DARPin serum albumin interaction can be determined.
(§3) While human and cynomolgus monkey serum albumin are bound by all DARPins analyzed, rabbit, mouse, rat and dog serum albumin is only bound by a subset of these DARPins.

Kd [nM]	Binder
27	B1
30	B2
96	B3
43	B4
68	B5
13	B6
14	B7
35	B8
26	B9
39	B10
15	B11
7	B12
11	B13
6	B14

Target: T2, cynomolgus monkey serum albumin (cynomolgus monkey (macaca fascicularis), UniProt A2V9Z4 25-608)
T2 construct: also called CSA
T2 sequence (A2V9Z4 25-608 limits assumed): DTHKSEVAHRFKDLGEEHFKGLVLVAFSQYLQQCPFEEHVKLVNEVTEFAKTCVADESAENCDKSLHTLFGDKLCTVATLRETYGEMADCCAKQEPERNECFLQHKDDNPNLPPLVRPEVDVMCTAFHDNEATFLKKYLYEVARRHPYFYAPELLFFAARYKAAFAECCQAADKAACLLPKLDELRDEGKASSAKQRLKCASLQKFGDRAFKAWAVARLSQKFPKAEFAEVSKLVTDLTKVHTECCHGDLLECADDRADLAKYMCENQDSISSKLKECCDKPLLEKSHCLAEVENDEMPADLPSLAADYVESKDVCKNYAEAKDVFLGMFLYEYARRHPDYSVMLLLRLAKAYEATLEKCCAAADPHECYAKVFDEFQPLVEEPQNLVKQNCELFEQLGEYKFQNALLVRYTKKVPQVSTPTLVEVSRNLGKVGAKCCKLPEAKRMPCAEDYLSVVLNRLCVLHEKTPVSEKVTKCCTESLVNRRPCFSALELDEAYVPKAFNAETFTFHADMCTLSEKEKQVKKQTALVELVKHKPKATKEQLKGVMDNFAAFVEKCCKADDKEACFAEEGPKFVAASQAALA
Assay: as above
Protocol: as §1, §2, §3

Kd [nM]	Binder
110	B1
74	B6
63	B7
110	B9
7	B11
4	B12
6	B13
3	B14

Target: T3, mouse serum albumin (mouse, UniProt P07724 25-608)
T3 construct: also called MSA
Assay: as above
Protocol: as §1, §2, §3

Kd [nM]	binding result	Binder
124	–	B1
68	–	B6
56	–	B7
142	–	B9
–	no binding (tested: up to 400 nM)	B11
–	no binding (tested: up to 400 nM)	B12
–	no binding (tested: up to 400 nM)	B13
–	no binding (tested: up to 400 nM)	B14

Target: rat serum albumin (rat, UniProt P02770 25-608)
Sequence (P02770 25-608 limits assumed): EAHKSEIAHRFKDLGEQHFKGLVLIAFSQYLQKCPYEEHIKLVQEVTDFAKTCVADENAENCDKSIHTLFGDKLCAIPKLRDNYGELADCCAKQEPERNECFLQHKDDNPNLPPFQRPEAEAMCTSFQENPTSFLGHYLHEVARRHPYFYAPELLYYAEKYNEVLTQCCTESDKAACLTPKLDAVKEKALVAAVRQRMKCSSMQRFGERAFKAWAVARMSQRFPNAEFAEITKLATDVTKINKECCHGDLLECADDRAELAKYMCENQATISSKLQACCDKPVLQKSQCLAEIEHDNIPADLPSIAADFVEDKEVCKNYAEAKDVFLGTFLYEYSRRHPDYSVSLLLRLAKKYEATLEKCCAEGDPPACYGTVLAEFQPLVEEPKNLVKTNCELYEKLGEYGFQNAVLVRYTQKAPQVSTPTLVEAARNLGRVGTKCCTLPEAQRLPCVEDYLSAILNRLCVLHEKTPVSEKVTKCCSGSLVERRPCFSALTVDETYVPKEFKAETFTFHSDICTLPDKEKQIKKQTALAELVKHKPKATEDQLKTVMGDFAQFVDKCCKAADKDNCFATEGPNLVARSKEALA
Assay: as above
Protocol: as §1, §2, §3

Kd [nM]	binding result	Binder
242	–	B1
109	–	B6
91	–	B7
266	–	B9
–	no binding (tested: up to 400 nM)	B11
–	no binding (tested: up to 400 nM)	B12
–	no binding (tested: up to 400 nM)	B13
–	no binding (tested: up to 400 nM)	B14

Target: rabbit serum albumin (rabbit, UniProt P49065 25-608)
Sequence (P49065 25-608 limits assumed): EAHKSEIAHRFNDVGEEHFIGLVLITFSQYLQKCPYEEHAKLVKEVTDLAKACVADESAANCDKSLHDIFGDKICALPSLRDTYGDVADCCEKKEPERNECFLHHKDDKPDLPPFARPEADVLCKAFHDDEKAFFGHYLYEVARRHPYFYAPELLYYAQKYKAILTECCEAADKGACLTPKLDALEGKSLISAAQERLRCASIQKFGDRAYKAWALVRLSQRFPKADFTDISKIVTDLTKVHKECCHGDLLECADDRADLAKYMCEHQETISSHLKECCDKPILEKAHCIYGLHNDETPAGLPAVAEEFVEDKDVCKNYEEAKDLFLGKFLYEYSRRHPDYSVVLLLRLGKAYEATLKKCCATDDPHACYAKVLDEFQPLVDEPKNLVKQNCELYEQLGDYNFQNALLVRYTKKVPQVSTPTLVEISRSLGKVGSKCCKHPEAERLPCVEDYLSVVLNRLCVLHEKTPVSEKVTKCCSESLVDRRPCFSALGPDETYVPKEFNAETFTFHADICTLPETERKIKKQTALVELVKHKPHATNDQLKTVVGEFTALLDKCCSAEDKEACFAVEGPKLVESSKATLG
Assay: as above
Protocol: as §1, §2, §3

binding result	Kd [nM]	Binder
no binding (tested: up to 400 nM)	–	B1
no binding (tested: up to 400 nM)	–	B6
no binding (tested: up to 400 nM)	–	B7
no binding (tested: up to 400 nM)	–	B9
–	17	B11
–	8	B12
–	19	B13
–	9	B14

Target: dog serum albumin (dog, UniProt P49822 25-608)
Sequence (P49822 25-608 limits assumed): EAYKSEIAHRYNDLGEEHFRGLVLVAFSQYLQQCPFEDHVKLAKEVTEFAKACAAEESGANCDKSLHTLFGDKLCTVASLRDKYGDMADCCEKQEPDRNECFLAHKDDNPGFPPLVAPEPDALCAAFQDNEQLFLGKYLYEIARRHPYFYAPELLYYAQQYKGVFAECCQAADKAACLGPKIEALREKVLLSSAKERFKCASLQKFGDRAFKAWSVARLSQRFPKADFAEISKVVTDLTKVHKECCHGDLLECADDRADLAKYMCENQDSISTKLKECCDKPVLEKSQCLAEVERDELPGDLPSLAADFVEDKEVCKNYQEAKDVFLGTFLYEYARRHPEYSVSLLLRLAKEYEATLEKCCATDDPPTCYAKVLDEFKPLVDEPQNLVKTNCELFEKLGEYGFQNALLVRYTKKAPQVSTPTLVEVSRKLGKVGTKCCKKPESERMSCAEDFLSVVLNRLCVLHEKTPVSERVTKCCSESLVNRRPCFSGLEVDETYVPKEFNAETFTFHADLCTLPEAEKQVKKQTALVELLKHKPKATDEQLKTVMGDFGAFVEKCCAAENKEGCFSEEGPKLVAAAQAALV
Assay: as above
Protocol: as §1, §2, §3

Kd [nM]	binding result	Binder
185	–	B1
81	–	B6
77	–	B7
180	–	B9
–	no binding (tested: up to 400 nM)	B11
–	no binding (tested: up to 400 nM)	B12
–	no binding (tested: up to 400 nM)	B13
–	no binding (tested: up to 400 nM)	B14
